Among the data in article PMC5641629 are koff, kon and Kd values, retold here.

The target of the test is penicillin binding protein 2a (PBP2a) lacking the N-terminal 40 amino acid membrane-spanning domain (Staphylococcus aureus (MRSA)). Description: SPR.
A word on the koff: it is a measure of how fast the partners let go of each other. The low end stands for slow dissociation, the high end for fast dissociation. Usually kon stands for a measure of how fast the partners come together. Low readings indicate slower complex formation, high ones faster complex formation. “BLIP-II Y248A (from UniProt O87916 1-311) (natural protein)”: the koff turned out to be 0.00086 s⁻¹ and the kon was 114 M⁻¹ s⁻¹.
By Kd is commonly meant the free concentration of one partner at which half of the binding sites on the other are occupied at equilibrium, for simple one-to-one binding. A higher Kd goes with weaker binding. Regarding “BLIP-II Y73A (from UniProt O87916 1-311) (natural protein)”, the Kd worked out at 1.2 µM, the koff was determined as 0.00119 s⁻¹ and the kon amounted to 961 M⁻¹ s⁻¹.
In the same order, the values of “BLIP-II S169A (from UniProt O87916 1-311) (natural protein)” are 1.4 µM, 0.00074 s⁻¹ and 504 M⁻¹ s⁻¹.
In the same order, the values of “BLIP-II I229A (from UniProt O87916 1-311) (natural protein)” are 3.4 µM, 0.00115 s⁻¹ and 339 M⁻¹ s⁻¹.
In the same order, the values of “BLIP-II F209A (from UniProt O87916 1-311) (natural protein)” are 6 µM, 0.00078 s⁻¹ and 137 M⁻¹ s⁻¹.
The substance “BLIP-II T57A (from UniProt O87916 1-311) (natural protein)” gave a Kd of 0.6 µM, a koff of 0.00095 s⁻¹ and a kon of 1750 M⁻¹ s⁻¹.
For “BLIP-II D52A (from UniProt O87916 1-311) (natural protein)”, in that order: 1.8 µM, 0.00061 s⁻¹ and 354 M⁻¹ s⁻¹.
Substance “BLIP-II W269A (from UniProt O87916 1-311) (natural protein)” returned a Kd of 3.1 µM, a koff of 0.00116 s⁻¹ and a kon of 375 M⁻¹ s⁻¹.
The substance “BLIP-II W152A (from UniProt O87916 1-311) (natural protein)” had a koff of 0.0012 s⁻¹ and a kon of 185 M⁻¹ s⁻¹.
Take “BLIP-II N112A (from UniProt O87916 1-311) (natural protein)”: the Kd was determined as 1.2 µM, the koff was 0.0014 s⁻¹ and the kon was 1190 M⁻¹ s⁻¹.
“BLIP-II L91A (from UniProt O87916 1-311) (natural protein)” registered a Kd of 4 µM, a koff of 0.00066 s⁻¹ and a kon of 168 M⁻¹ s⁻¹.
“BLIP-II Y113A (from UniProt O87916 1-311) (natural protein)” displayed a Kd of 4 µM and a kon of 217 M⁻¹ s⁻¹.
The substance “BLIP-II N51A (from UniProt O87916 1-311) (natural protein)” returned a Kd of 0.7 µM, a koff of 0.00086 s⁻¹ and a kon of 1270 M⁻¹ s⁻¹.
In turn, “BLIP-II E268A (from UniProt O87916 1-311) (natural protein)” yielded a Kd of 4.7 µM and a kon of 424 M⁻¹ s⁻¹.
Substance “BLIP-II N50A (from UniProt O87916 1-311) (natural protein)” yielded an equilibrium dissociation constant (Kd) of 0.45 µM, a koff of 0.000719 s⁻¹ and a kon of 1540 M⁻¹ s⁻¹.
